These results are taken from paper doi:10.1101/2025.03.24.644901.

In the experiment the target is MBP-SCC1 (aa 100-320) with C-terminal tetracysteine motif, FlAsH-labelled (human) (UniProt O60216). Kind of experiment: fluorescence polarisation.
Chain of MBP-SCC1 (aa 100-320) with C-terminal tetracysteine motif, FlAsH-labelled (human) (O60216 100-320): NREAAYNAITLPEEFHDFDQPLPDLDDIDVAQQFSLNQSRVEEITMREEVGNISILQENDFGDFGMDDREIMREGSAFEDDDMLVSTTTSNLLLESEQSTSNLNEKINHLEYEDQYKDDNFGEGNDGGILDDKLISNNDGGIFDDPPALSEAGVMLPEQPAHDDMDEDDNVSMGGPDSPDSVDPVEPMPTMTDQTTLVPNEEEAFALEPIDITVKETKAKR

“inactive apo-separase (separase^C2029S), Q14674 1-2120” registered a fold lower Kd than for SCC1^350–550 of 3 fold.
